Conditions: Aspergillus oryzae (strain ATCC 42149 / RIB 40), Thermal, DSC, glycine 0.05 M, reversible: yes, whole UniProt chain shown

B1: Guanyl-specific ribonuclease T1 wild type, P00651 (protein)
chain: MMYSKLLTLTTLLLPTALALPSLVERACDYTCGSNCYSSSDVSTAQAAGYQLHEDGETVGSNSYPHKYNNYEGFDFSVSSPYYEWPILSSGDVYSGGSPGADRVVFNENNQLAGVITHTGASGNNFVECT
- Tm (pH 2): 39.2 °C
- unfolding enthalpy (calorimetric) (pH 2): 82 kcal/mol
- Tm (pH 2.5): 45.6 °C
- unfolding enthalpy (calorimetric) (pH 2.5): 89.4 kcal/mol
- heat capacity change of unfolding (pH 3, 40 °C): 1.19 kcal/mol/K
- unfolding free energy (pH 3, 40 °C): 2.94 kcal/mol
- Tm (pH 3): 50.5 °C
- unfolding enthalpy (calorimetric) (pH 3): 97.3 kcal/mol
- Tm (pH 4): 63.3 °C
- unfolding enthalpy (calorimetric) (pH 4): 110 kcal/mol

Source: FireProtDB (doi:10.1111/j.1399-3011.1991.tb01525.x)
